In the domain aggregation screens of Martell et al. (2025):

Experiment: soluble fraction after stress (log2 fold change); higher = more stays soluble; pooled small domains, quantitative proteomics
Conditions: stress: pH 4
Summary of the method: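 Following acid stress at pH 4, the amount of each small protein domain still soluble was measured in pooled custom libraries by high-throughput quantitative proteomics. Its fold change, on a log2 scale, is higher when more of the domain stayed soluble. This fold change is taken as a measure of aggregation propensity.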

Sequence	soluble fraction (log2)
HMGTTKGVVDVTVPNGRASQHVKLVVIDDDGGRVVYDGTNAPGDRIVKSVSGSGNVRVQIYLNNALVQEQS	-0.306
HMGTTMLEVPNFVGEVFKEIDPEKYPNLRLVDSDYTYSNEYEAGKVISQDPVARTQVAEGSTVKLVIS	-0.249
HMGTVISVDKARSIALAKVPGASANDIRIHLDRDDGRQIYEGEIYYNRMEYEFEIDASTGTIIEWSAEHW	0.00283
HMGTVQSVDRALLLLSEIGREPGGLVDLSTRVRLATSTTGRILATLEHAGAVVRGDDGIYHIGPLVHGMVS	0.0724
HMGTYSKQDLLQLIGRYPDGIGKREINLAFSKGTKIRNLLNIELNELLNERLITLSQGGLYIKP	≥ 0.43
HMGVAFAPVEKIKHTKTGNELYAVKLAGRVEAEVFGQLRQKAKEYDGYYSKFSRAFLFSTPEDAEAFRAE	0.276
HMGVDIAEHDGQPAVSIRKGAAESVAQWVKDQGGTFPQEVEMTVQNVARAGGTPLVVARGRDVLGVIYLKD	-0.281
HMGVDKLTPREREVLALMAQGASNREIEGKLVLTAGAVSKHVANVFMKLGFSPEDENRRVKAVLAWLRTK	0.225
HMGVGIEALAVEVDRIRQVLTGGGALSDIQLFSQLKALGEVKTALSSMTDPRARELEKRVAQLLEASLRT	-0.323
HMGVKHKHKGAGELLAALRTMFPNSSVSTLRKMLTQGRVVLNGEVVHRAKHELTDGDTIEVLERQRAER	0.228
HMGVKIELNENEQAIFAAMQKQVEAVLPDLRAQFADMSNKAWDNSVKTLTKNNLLKVSKEAEILFIRL	-1.09
HMGVKTDKYYYQMATETRVNKHYGLSNQYIATLISEYPRSPLIPNASILSKKNNADLALIDQSINQR	0.155
HMGVLSPRQSQILALVAQGLGNREIAERLHIAPTTARDHVQAIMRRLNVNSRAAAAVMGVKLGLI	0.085
HMGVNEGVNKLFKTIQETPGKRMPYYALATDVPEKTIERWLKQLREEGKIEFKGSAKTGGYFVIDK	0.22
HMGVRDIRIFERNNSFFVNAEIRGEAQLSVPITRTDYQLFKENKIDALSLVEKYYAEELNASNEMK	0.155
HMGVSLNELAYRRFKQALVTLSYKPGEYLNTAQVMNDLDMGRTPINQAIHRLANEGLLQVIPRKGVMVS	0.026
HMGVTDLFAVLGFPRSPWLDAEELKQRHHALMADEASANSSPTILNEARRTLQNPALRIRHFLALEFPDH	-0.82
HMGVYDLIYLGYGINVEKEELVDQNISIIRRYANIFDPNGDIKGSTNPTYASNTAVLFNEAKFIIDGYD	-1.79
HMGWQPDPLTTRERLVAELATQASNAQIAEQLHLSVRTVEGHLAHVYTKLGITTRRELPAALAGAR	-2.8e-05
HMGWTTPAGIAVGMDKSVLQDAYGKEDDTFQDKGILYYQYFVHPSRMSGLSFGIKNDKIVSITAYMD	-1.23
HMGYDDLEPFDANGRLRWSDQELVLAFGRHRGATLRTLELNDPSYLRWLLSGNGPLEQQDIQRLEQILES	-1.44
HMGYDLLFQQALGFHEQGRLNEAENIYRQILETAPNNPDILNLLGLIAQQKGLHAQAVDYFYQAIRL	-1.9
HMGYDVAEVKFRLIKLLRDSKIGISGVEISERLGINRVTMTKYLNIFSAEGVIGEKNIGNVNLWFVYEGIE	-0.186

Sequence	soluble fraction (log2)
HMGYQLSLEAQSQLKALGLTSEYITRILDEADNRQPIPGTSRTVYSLNGYQVEFSHSDQQVIRIARG	-0.262
HMGYSDEIGEFIKKLRTENHLTQKEFADKYGVTYQAVSKWENGKNLPDMSLIKQMSEDFNIGIDELLDGEK	-0.454
HMGYTLDVAHGVTEDMNFSEAFATAREEVGPGGIFYWHGKPYGTYYENEWNAMDEEDKAEYWDAVGRTTA	-0.508
HMHANSDVEQLMQMGIQRLNFQRYSDALLIFNQIIENFPDYAEAWNKRATLHYLLGNLDKSIADIEQTLE	-1.54
HMHAPIAELKKVFKEEFADQEVTVRQLAGSVLLSGNVKTAELRENLESVAKQFFPRVINNLKLI	0.0685
HMHDAKAEIIRLSALLTEYQRSYYIDGHSQVSDLEYDRLFDRLVALETSHPELREADSPTQRV	-1.14
HMHDAKTQLQEEAARRGLPAPVYTRIGQEGPDHAPRFRVRADVGPHQAEAVAGSLKLAQAEAARAILRQMP	0.28
HMHDITPAVAETFKQLRAERGLSLSQAAQLTGVSKAMLGQIERGQSSPTVSTLWKIATGFNVAFSVFL	-0.309
HMHDLGEQIIEKLRASGGISTLTDKSDPDAIYRQFKVSKKKYKQALGTLYKSRRITLAPNQIKLA	0.22
HMHDPLATLTPREHEVMSLMAEGRTNAAIAQALVIGTGAVEKNVTSIFQKLGLDDSGTDHRRVLAVLAWLQ	-1.18
HMHDRRSGKVKWYSDRKGYGFIDLDGGEVFIHRSALIAFGALRLQAEDIITITVRETDRGLVVDQLFGIER	-1.63
HMHEAILNQIRNEELMLYIGELSDAQQDVILLKYFHQMTFKEIAESFSIPISTVKTRHTAALKKLSTLWK	0.0907
HMHESLAEVAARKLRALIVTGELAPGERVTEAGLTDLLEISRTPAREAIRILSSEGLLVVFPNRGAEVV	-0.815
HMHEYSDIEHRILDAAREVFIRKGYDSATMGDIALLAGMSRTSVNYYFRNKERLFEAIFEEII	-1.25
HMHFDQILAHAMDERGMNAVQLASLTGLSSGAISRYLAGDRQPTVYSIQQIAKALGVSADYLVG	0.22
HMHGEAEFLDATAVVMEKLNPGGLVKIKGEIWQAVSKDGHTIQEGEKVRVFERQGITLLVGHF	-0.223
HMHGTIHSAAYGGDIEAVKKFLAAGADVNANGGGRTPLDLAIQVKNTEIADLLRKHGGKTGDELKA	0.398
HMHGYLSDPAARLIRARRKTLSIRITQEGNLEIRAPLGMPKGEIEAFLKEKAQWIETHRAKVLAEYA	-0.138
HMHHDQQQITAELARIARNGLPGLTADNAIISRLDALNLLINIHDDRGADATPLRGLLPAIADELLRLT	0.0087
HMHHIDTAWFRGKMREHRLTQEAVGQAIGLERSMVSKIIKGTVSFNARKASAWAQLLRVSESEILERVGI	-0.379
HMHHIDYKQLRRINPVAARRAVLDYLESTGGNITKTAQVFSINRSVVYDILKKQASGDLSDRLRIP	0.249
HMHIDQVIRERRLALGLTQEELANKIGVSAPAVSKWEKRVSYPDITLLPALARILGTDVNTLLTFS	-0.309
HMHIVQEGDSLYGIARQYRITVEELRSLNALETADVIVPYQKLYV	-1.14

Sequence	soluble fraction (log2)
HMHKPLRILVYEELRMLIMTGQIKPGTRMMEIDLAESMGVSRTPVREAIRQLEKDNLVTIEPRRGAYVSD	-0.761
HMHKYQVGETVYYTSPTFGRAAATGSYIVVKLLPSEGDDYQYRIKSSGEAFERVAKESQLDR	0.11
HMHLIPRESTYEIDGRRFVVDSVNLDFGKVSLQDITFRNATGFPIFRSESIEFMRRLVEISEAQRIAEL	-0.114
HMHLPDNAVSIISELKMTPEEVLELIGKLPHDFLFLPYSQRKKIIVDLIPNKDYKLLMSLIKKFML	-0.536
HMHLTRYQYKVETEQEAVGLKELSSVHDLQIKENEATFQADSDAIDEILKTLLLYGVKKLEATPPTLED	-1.05
HMHMSLTEKYKELTDLAVSAGVQNLNVREQDGVLYVDGDASGAVKQQLWDTYGKLDPDYTSGDLVLNI	-0.696
HMHNSPSPVATTILRFLQPVRAFVGDTEDMRTFGPFLREDVAMVPASQAKNLIRSGHAVEINP	-0.173
HMHNSQTIIDNIKRIANEQNISLSKLAVISGLGKNTITSMTAKTNIKIETLTAIAKSLNVSIHDLTGE	0.0739
HMHPDHRTATVPDAAAGRRFDAVLAELFPQFSRSKLTTWIKSGEVLLNGEVPRPRDAVVGGETVSLNVVL	≥ 0.43
HMHPMVEAYLADLDRALSGSDPREHAETMSAVREHLADAIAPDATAEQVRHALDELGPVEAIAAG	-0.239
HMHPQISVEGVLPLKEAVEFVEREIISHAYSRYRATREVARHLGIDPSTVLRKAAKYGITVEPGKN	-0.372
HMHPRDREENKYLLLRGERIYEESIGEKRLYVEAALHKYEKALSSYDTGLIDEAKEEFKKFLEEIEEA	-0.438
HMHPVEPDDPDQHILFQHLRGQDQVHIDALIRLSGWTADKVSSTLLFMELQGLVKQLPGMYYALE	-1.07
HMHQAADFAGFITFNKDGVEQFSFGKYKNQTVVSVLEKDPGYYSWIQNADFPLYTKKILTAIRLAM	-0.0054
HMHQALLEQSAEHAQQVKAYELLLTAERALDEENTEAFLSAMKSLKPLAENLDAKGKALYQELLPFVTEA	-0.425
HMHQAVTVTKPARLFTGPDGKGVVRSLDVGMMLYPTGEKQGMMWEVEDELGNKGWVSSTLLELS	0.197
HMHSEEAALLHRYIDSLEEPQHTVVVMRDIGGYSFEEIASVVQLKEAHIWMILSRARRKLRELYIKTMDHH	-0.101
HMHSFFGDNIKKLRTAKKMSQEQLADIFGITKAGISYWETGRSEPNFATVQKLADFFGVTTSDLLGEA	0.187
HMHSFGLHVRNLRKKSNLTLSQLSNASGLSLSAISKIENNQISPSFINLIRLAEGLKMHIADLVTVK	-0.254
HMHSGFHSAILDVDRAVKEGKTLYEALNKYPYIFDETFRSLVRAGEASGELPSILSKLALYLEEQSK	-1.04
HMHSLLDDIPNVGEKRKRILLTHFQSLEEIKAATVEELERLPQINRKAAESIYTFFHSQPIR	0.139
HMHSRLEDIPGIGPRRRAMLLRHFGGLAELKAAGVEEIARVEGINMALAQRLWRALHGVPDPT	0.343
HMHSVIALTIPADYAGLRLDQALAKLLPNWSRSRLQTWIAENRVILDGQITTIKQKVWGNELIQISPQD	-0.252
